Experimental findings from article PMC11294563 are described below.

A word on the Kd: it is a measure of binding affinity in units of concentration. Higher therefore signals a looser complex. As a reminder, the stoichiometry N is the number of molecules, sites or subunits per partner or assembly.

In test [1] the target is mNG::PAR-2(L109R) (endogenously tagged PAR-2 with L109R) (C. elegans).
Test [2] has as its target PAR-2 RING domain (residues 40-120) L109R (C. elegans). Kind of test: SEC-MALS; input sample 0.75 mg/ml, wild type compared with L109R; Superdex 75 Increase 10/300 GL, 20 mM Tris-HCl, 150 mM NaCl, 0.5 mM TCEP pH 7.5.
For test [3], the target named is PAR-2 RING domain (PAR-2 residues 40-120, core RING domain and flanking dimerization helices) (C. elegans). As to the kind of experiment: AUC; sedimentation equilibrium, interference data, 20,000 and 24,000 rpm, three PAR-2 RING concentrations, 20 mM Tris-HCl, 150 mM NaCl, 0.5 mM TCEP; global fit to a monomer-dimer model (SEDPHAT); dimer to monomers.
The target is the same in test [4]. Kind of test: SEC-MALS; input samples from 10 to 0.5 mg/ml, 100 µl on Superdex 75 Increase 10/300 GL, 20 mM Tris-HCl, 150 mM NaCl, 0.5 mM TCEP pH 7.5, 1.0 ml/min; weight-averaged molecular weight fitted to a monomer-dimer model. On the technique in general: In gel filtration, larger molecules generally elute earlier.
Test [5] shares this target. Kind of test: SEC-MALS; input sample 0.75 mg/ml, wild type compared with L109R; Superdex 75 Increase 10/300 GL, 20 mM Tris-HCl, 150 mM NaCl, 0.5 mM TCEP pH 7.5.

As for “mNG::PAR-2(L109R) (endogenously tagged PAR-2 with L109R) (natural protein)”, the fold reduction in dimerization affinity against PAR-2(WT), from the simultaneous fit of the model to membrane and cytoplasmic concentrations in embryos (common KD^mem) in test [1] stood at 6 fold.
In test [2], “PAR-2 RING domain (residues 40-120) L109R (domain or fragment)” returned a dimer fraction at 0.75 mg/ml of 5% and a fold reduction in dimer affinity against wild type of 10 fold.
The substance “PAR-2 RING domain (PAR-2 residues 40-120, core RING domain and flanking dimerization helices) (domain or fragment)” had a Kd in test [3] of 358 nM. In test [4], this substance displayed a stoichiometry N of 2. In addition, the dimer fraction at 0.75 mg/ml in test [5] is 35%.
